Data on one protein can be found in publication PMC2804263 (Biochemistry, 2009).

This series concerns the molecule itself. Put plainly: crystal structure.

B1: Bovine S100B (Ca^2+-S100B in the SBiX crystal structures) (natural protein)
chain: MSELEKAVVALIDVFHQYSGREGDKHKLKKSELKELINNELSHFLEEIKEQEVVDKVMETLDSDGDGECDFQEFMAFVAMITTACHEFFEHE
B1: the binding result is on record as “binds”.
